The supplement of paper PMC10065799, “High-throughput profiling of sequence recognition by tyrosine kinases and SH2 domains using bacterial peptide display” (eLife, 2023)

Key:
AncSZ = test: phosphorylation enrichment, bacterial display (enrichment ratio); higher = better substrate or ligand; peptides without Tyr show the background
EPHB1 = EPHB1 (UniProt P54762); test: as above
EPHB2 = EPHB2 (UniProt P29323); test: as above
FGFR1 = FGFR1 (UniProt P11362); test: as above
FGFR3 = FGFR3 (UniProt P22607); test: as above
Fer (mouse) = test: as above
Fes = Fes (UniProt P07332); test: as above
Fyn = Fyn (UniProt P06241); test: as above
Hck = Hck (UniProt P08631); test: as above
Jak2 = Jak2 (UniProt O60674); test: as above
MERTK = MERTK (UniProt Q12866); test: as above
c-Abl (mouse) = test: as above
c-Src = test: as above
Grb2 SH2 = Grb2 SH2 (UniProt P62993); test: SH2 binding enrichment of the phosphorylated peptide, bacterial display (enrichment ratio); higher = better substrate or ligand; peptides without Tyr show the background
SHP2-C SH2 = test: as above
c-Src SH2 = test: as above
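Throughout, for SH2 binding enrichment of the phosphorylated peptide, bacterial display: peptide library displayed on the E. coli surface as eCPX fusions, selected cells deep-sequenced, score is each peptide's frequency after selection divided by its frequency in the input.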
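Throughout, for phosphorylation enrichment, bacterial display: 11-residue human phosphosite peptides and single-mutation variants displayed on the E. coli surface, counted by deep sequencing, each peptide's frequency after selection divided by its frequency in the unselected input library; frequency after pTyr selection over input frequency; kinase dosed for 20-30% of maximal phosphorylation in three min.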

Sequence of FGFR3 (P22607 whole entry, looked up): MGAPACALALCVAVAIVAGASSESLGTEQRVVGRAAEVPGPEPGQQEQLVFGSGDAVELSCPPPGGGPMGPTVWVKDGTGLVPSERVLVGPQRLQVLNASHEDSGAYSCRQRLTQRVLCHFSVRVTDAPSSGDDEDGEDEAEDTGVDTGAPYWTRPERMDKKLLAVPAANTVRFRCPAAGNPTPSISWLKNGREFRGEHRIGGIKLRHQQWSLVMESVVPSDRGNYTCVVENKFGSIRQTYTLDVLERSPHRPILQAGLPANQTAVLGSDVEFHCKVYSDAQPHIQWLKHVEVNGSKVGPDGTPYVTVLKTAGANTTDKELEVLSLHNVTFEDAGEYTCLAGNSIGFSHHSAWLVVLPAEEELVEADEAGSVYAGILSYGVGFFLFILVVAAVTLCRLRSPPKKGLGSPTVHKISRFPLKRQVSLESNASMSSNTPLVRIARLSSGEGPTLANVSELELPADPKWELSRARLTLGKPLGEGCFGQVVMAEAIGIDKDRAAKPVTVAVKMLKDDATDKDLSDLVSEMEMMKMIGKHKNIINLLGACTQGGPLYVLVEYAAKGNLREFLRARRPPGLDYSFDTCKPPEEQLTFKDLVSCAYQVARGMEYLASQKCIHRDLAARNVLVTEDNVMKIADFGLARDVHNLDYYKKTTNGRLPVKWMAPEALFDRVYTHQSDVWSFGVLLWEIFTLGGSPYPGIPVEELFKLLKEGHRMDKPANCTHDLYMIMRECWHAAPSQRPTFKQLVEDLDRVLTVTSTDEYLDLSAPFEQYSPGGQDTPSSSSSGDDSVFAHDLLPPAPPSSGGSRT
Sequence of Jak2 (O60674 whole entry, looked up): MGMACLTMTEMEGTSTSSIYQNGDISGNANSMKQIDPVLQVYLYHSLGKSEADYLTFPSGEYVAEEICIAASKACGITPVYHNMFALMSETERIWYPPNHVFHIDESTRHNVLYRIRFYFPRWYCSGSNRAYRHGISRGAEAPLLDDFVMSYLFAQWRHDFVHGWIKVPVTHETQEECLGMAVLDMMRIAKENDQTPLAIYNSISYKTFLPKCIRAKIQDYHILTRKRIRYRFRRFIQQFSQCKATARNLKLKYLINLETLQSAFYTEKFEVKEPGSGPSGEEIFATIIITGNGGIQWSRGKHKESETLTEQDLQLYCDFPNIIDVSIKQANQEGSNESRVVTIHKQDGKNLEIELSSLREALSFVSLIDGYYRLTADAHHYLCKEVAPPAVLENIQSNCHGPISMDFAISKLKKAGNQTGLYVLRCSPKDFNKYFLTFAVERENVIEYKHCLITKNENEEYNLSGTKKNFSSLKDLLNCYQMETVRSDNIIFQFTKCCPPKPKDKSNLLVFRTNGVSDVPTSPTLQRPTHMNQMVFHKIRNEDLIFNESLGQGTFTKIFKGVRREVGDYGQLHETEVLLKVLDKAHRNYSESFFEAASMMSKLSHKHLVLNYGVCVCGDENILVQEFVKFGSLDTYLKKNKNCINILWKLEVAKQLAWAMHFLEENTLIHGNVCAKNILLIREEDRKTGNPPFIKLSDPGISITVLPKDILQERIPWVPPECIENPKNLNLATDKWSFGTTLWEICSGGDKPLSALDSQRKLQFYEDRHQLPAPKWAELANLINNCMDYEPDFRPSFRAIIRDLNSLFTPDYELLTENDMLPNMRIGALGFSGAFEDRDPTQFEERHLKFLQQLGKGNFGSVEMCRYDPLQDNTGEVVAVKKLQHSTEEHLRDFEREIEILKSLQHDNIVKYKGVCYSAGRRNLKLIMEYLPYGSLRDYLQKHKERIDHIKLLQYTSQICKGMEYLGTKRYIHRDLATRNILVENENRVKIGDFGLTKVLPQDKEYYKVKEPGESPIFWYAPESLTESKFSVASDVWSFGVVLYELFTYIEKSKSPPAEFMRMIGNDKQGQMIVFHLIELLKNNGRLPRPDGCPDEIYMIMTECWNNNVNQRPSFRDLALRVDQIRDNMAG
Sequence of Hck (P08631 whole entry, looked up): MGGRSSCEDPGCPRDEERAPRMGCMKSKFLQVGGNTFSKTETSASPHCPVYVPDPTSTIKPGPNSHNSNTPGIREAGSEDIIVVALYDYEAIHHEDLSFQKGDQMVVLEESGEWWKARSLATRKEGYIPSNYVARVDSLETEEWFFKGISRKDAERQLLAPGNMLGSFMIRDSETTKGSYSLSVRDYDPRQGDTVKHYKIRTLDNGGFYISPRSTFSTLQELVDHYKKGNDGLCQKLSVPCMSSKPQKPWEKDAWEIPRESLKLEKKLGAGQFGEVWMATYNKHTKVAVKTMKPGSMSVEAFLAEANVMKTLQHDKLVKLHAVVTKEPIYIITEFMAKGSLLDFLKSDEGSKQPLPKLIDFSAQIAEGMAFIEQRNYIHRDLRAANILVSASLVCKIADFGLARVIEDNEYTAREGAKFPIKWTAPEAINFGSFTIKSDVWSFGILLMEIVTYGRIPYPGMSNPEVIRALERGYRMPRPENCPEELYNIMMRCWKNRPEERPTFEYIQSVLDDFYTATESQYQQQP
Sequence of EPHB1 (P54762 whole entry, looked up): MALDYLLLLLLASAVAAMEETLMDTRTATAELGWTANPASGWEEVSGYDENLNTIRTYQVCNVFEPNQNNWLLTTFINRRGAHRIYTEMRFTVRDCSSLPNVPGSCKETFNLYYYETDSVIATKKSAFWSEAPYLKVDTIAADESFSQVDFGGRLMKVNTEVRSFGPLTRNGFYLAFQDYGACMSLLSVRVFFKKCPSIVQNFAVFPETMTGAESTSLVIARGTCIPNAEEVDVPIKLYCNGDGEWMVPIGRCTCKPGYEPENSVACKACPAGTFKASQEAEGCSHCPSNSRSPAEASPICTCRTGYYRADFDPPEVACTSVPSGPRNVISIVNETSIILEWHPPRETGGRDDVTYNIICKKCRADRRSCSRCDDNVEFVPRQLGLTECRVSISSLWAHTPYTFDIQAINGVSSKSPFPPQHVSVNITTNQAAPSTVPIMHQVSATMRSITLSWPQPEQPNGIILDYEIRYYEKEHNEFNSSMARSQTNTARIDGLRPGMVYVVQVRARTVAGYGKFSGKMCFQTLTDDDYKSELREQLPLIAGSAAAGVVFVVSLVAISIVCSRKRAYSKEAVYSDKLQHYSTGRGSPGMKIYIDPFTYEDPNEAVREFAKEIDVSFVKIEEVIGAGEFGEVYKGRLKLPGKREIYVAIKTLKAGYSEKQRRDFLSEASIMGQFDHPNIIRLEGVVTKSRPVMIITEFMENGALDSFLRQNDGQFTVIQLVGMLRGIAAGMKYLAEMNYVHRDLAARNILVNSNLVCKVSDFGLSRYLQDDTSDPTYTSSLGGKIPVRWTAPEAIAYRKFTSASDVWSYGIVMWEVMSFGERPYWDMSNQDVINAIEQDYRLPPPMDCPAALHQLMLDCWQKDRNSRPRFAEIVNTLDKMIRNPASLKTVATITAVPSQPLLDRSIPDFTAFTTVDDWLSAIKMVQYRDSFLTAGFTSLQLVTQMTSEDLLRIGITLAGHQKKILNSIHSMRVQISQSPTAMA
Sequence of EPHB2 (P29323 whole entry, looked up): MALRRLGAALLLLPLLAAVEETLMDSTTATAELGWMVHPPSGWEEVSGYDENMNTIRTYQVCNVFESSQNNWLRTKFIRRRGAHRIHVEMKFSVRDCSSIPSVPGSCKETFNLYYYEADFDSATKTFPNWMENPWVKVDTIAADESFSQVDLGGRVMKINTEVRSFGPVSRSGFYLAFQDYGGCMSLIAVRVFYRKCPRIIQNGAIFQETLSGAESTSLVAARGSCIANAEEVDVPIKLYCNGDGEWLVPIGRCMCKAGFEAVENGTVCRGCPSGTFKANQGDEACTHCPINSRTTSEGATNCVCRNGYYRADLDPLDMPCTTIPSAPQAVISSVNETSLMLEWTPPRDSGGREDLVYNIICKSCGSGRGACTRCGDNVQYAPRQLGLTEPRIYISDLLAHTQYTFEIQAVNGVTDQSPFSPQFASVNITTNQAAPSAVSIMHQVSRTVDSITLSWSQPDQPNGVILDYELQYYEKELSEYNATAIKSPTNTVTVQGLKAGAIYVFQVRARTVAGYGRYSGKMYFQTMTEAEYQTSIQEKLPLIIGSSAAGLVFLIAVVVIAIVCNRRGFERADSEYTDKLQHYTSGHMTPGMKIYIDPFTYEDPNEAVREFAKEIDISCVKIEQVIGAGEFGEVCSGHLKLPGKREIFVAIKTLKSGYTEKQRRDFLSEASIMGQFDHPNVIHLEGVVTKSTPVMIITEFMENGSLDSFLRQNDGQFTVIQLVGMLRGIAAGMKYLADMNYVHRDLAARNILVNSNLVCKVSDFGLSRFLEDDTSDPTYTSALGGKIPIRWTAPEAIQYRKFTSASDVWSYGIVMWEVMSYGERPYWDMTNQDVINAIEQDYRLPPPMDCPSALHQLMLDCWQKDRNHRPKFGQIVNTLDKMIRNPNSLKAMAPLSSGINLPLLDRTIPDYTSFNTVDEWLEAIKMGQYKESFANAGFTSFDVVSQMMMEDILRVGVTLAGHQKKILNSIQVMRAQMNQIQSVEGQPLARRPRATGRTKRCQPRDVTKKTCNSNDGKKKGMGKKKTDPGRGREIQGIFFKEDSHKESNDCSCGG
Sequence of Fyn (P06241 whole entry, looked up): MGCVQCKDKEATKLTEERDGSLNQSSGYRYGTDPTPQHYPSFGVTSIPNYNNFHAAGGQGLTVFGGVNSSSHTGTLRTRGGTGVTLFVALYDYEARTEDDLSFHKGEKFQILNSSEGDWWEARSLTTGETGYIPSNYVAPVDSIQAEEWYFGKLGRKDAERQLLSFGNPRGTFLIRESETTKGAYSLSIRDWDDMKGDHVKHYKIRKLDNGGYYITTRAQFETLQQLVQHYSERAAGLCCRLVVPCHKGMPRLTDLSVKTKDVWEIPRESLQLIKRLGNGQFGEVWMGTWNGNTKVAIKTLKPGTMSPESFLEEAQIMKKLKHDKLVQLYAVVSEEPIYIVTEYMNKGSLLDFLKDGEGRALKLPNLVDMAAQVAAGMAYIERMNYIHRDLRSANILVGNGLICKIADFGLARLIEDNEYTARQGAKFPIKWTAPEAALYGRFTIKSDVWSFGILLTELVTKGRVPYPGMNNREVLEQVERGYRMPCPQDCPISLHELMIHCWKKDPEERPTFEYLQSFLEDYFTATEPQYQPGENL

SH2 binding enrichment (Grb2 SH2)	SH2 binding enrichment (SHP2-C SH2)	SH2 binding enrichment (c-Src SH2)	Sequence	phosphorylation enrichment (AncSZ)	phosphorylation enrichment (EPHB1)	phosphorylation enrichment (EPHB2)	phosphorylation enrichment (FGFR1)	phosphorylation enrichment (FGFR3)	phosphorylation enrichment (Fer (mouse))	phosphorylation enrichment (Fes)	phosphorylation enrichment (Fyn)	phosphorylation enrichment (Hck)	phosphorylation enrichment (Jak2)	phosphorylation enrichment (MERTK)	phosphorylation enrichment (c-Abl (mouse))	phosphorylation enrichment (c-Src)
0.755	0.573	0.439	HNGVSYFINLC [IGF2R_Y2024_YF]	1.57	1.17	0.822	0.783	0.997	0.587	2.08	0.659	0.618	2.2	0.613	1.24	0.668
0.874	0.488	0.395	HNLDFYKQTTN [FGFR3_Y648_K650Q_YF]	0.948	0.623	0.494	0.581	0.631	0.409	1.35	0.368	0.455	0.793	0.581	0.683	0.409
1.04	0.666	0.401	HQNGTYGLHQD [SGSH_Y89_M88T]	0.615	0.418	0.541	0.71	0.727	0.431	0.764	0.61	0.753	0.459	0.414	0.555	0.599
0.885	2.89	0.465	HSVVQYVGGVM [FGGY_Y136_L134V]	0.989	0.517	0.572	0.447	0.629	0.643	0.911	0.465	0.609	0.726	0.603	0.61	0.491

Further lines, the sequence ahead of its results:

Sequence	SH2 binding enrichment (Grb2 SH2)	SH2 binding enrichment (SHP2-C SH2)	SH2 binding enrichment (c-Src SH2)	phosphorylation enrichment (AncSZ)	phosphorylation enrichment (EPHB1)	phosphorylation enrichment (EPHB2)	phosphorylation enrichment (FGFR1)	phosphorylation enrichment (FGFR3)	phosphorylation enrichment (Fer (mouse))	phosphorylation enrichment (Fes)	phosphorylation enrichment (Fyn)	phosphorylation enrichment (Hck)	phosphorylation enrichment (Jak2)	phosphorylation enrichment (MERTK)	phosphorylation enrichment (c-Abl (mouse))	phosphorylation enrichment (c-Src)
HNLPIYEGFAL [ACTA1_Y168_V165L_YF]	0.837	0.721	0.579	1.86	17.5	24.3	0.677	1.13	21.9	2.8	14.1	12.8	0.996	12.6	14	9.44
HRTLVYGGIFL [FBP1_Y259]	0.747	0.493	0.358	1.19	0.677	0.84	0.704	1.01	1.01	1.38	5.36	3.69	1.07	0.532	1.06	3.83
HSFQCYGQNEA [ENTPD3_Y262_R264Q]	0.968	0.62	0.596	0.996	0.551	0.452	0.604	0.71	0.382	1	0.535	0.701	1.21	0.422	0.793	0.441
HSLHDYKEALM [ADA2_Y337]	0.702	0.426	0.418	0.663	0.546	0.448	0.371	0.567	0.44	0.844	0.444	0.342	0.696	0.431	0.664	0.522
